Target: HLA-A*02:01 (Homo sapiens, UniProt P04439, D140Y/D185E/D98H/E176V/E277Q/G131W/G231S/I119V/I121R/I166T/I218V/L300P/L318F/N151K/N90K/P208A/P217A/Q86G/Q94H/R138H/R169H/T345S)
Test: MHC binding assay (UV-ligand exchange, beta2m ELISA, peptide exchange yield)
Details: binding of HLA-class I restricted peptides to HLA-A*02:01, ranged by peptide exchange yield (UV-ligand exchange, β2m ELISA)
From the text: Candidate peptides for T cell based therapies according to the present invention were further tested for their MHC binding capacity (affinity). The individual peptide-MHC complexes were produced by UV-ligand exchange, where a UV-sensitive peptide is cleaved upon UV-irradiation, and exchanged with the peptide of interest as analyzed. Only peptide candidates that can effectively bind and stabilize the peptide-receptive MHC molecules prevent dissociation of the MHC complexes. To determine the yield of the exchange reaction, an ELISA was performed based on the detection of the light chain (β2m) of stabilized MHC complexes. The assay was performed as generally described in Rodenko et al. (Rodenko et al., 2006).
96 well MAXISorp plates (NUNC) were coated over night with 2ug/ml streptavidin in PBS at room temperature, washed 4× and blocked for 1 h at 37° C. in 2% BSA containing blocking buffer. […] Peptide-MHC monomers of the UV-exchange reaction were diluted 100 fold in blocking buffer. Samples were incubated for 1 h at 37° C., washed four times, incubated with 2ug/ml HRP conjugated anti-82m for 1 h at 37° C., washed again and detected with TMB solution that is stopped with […]. Absorption was measured at 450 nm. Candidate peptides that show a high exchange yield (preferably higher than 50%, most preferred higher than 75%) are generally preferred for a generation and production of antibodies or fragments thereof, and/or T cell receptors or fragments thereof, as they show sufficient avidity to the MHC molecules and prevent dissociation of the MHC complexes.

Substance | Peptide exchange
584 (ALAEVAAMENV; listed as Homo sapiens) [compound 584] | ″+++″ (≥50% = +++)
393 (GLLDTQTSQVLTA; listed as Homo sapiens) [compound 393] | ″++″ (≥20% = ++)
396 (ALLPDLPAL; listed as Homo sapiens) [compound 396] | ″+++″ (≥50% = +++)
28 (QLLDETSAITL; listed as Homo sapiens) [compound 28] | ″+++″ (≥50% = +++)
63 (YLLPSGGSVTL; listed as Homo sapiens) [compound 63] | ″++″ (≥20% = ++)
349 (SLTEYLQNV; listed as Homo sapiens) [compound 349] | ″++++″ (≥75% = ++++)
512 (SLSEIVPCL; listed as Homo sapiens) [compound 512] | ″+++″ (≥50% = +++)
604 (SILDRDDIFV; listed as Homo sapiens) [compound 604] | ″+++″ (≥50% = +++)
428 (KLGHTDILVGV; listed as Homo sapiens) [compound 428] | ″++″ (≥20% = ++)
312 (IISDLTIAL; listed as Homo sapiens) [compound 312] | ″+++″ (≥50% = +++)
621 (VLMDRLPSLL; listed as Homo sapiens) [compound 621] | ″++++″ (≥75% = ++++)
437 (SMAPGLVIQAV; listed as Homo sapiens) [compound 437] | ″+++″ (≥50% = +++)
332 (YLISELEAA; listed as Homo sapiens) [compound 332] | ″+++″ (≥50% = +++)
188 (GLFPVTPEAV; listed as Homo sapiens) [compound 188] | ″+++″ (≥50% = +++)
477 (ALLPASGQIAL; listed as Homo sapiens) [compound 477] | ″+++″ (≥50% = +++)
595 (VLLSIYPRV; listed as Homo sapiens) [compound 595] | ″+++″ (≥50% = +++)
529 (LLADELITV; listed as Homo sapiens) [compound 529] | ″+++″ (≥50% = +++)
328 (ALNDQVFEI; listed as Homo sapiens) [compound 328] | ″+++″ (≥50% = +++)
451 (LLLLDTVTMQV; listed as Homo sapiens) [compound 451] | ″++″ (≥20% = ++)
531 (YTLPIASSIRL; listed as Homo sapiens) [compound 531] | ″+++″ (≥50% = +++)
326 (FLPEALDFV; listed as Homo sapiens) [compound 326] | ″+++″ (≥50% = +++)
555 (YVLEGLKSV; listed as Homo sapiens) [compound 555] | ″+++″ (≥50% = +++)
272 (ALGNTVPAV; listed as Homo sapiens) [compound 272] | ″+++″ (≥50% = +++)
182 (MLLEAPGIFL; listed as Homo sapiens) [compound 182] | ″+++″ (≥50% = +++)

Substance | Peptide exchange
201 (RLVDYLEGI; listed as Homo sapiens) [compound 201] | ″+++″ (≥50% = +++)
365 (YVIDQGETDVYV; listed as Homo sapiens) [compound 365] | ″+++″ (≥50% = +++)
438 (KLLPLAGLYL; listed as Homo sapiens) [compound 438] | ″++++″ (≥75% = ++++)
34 (ILVEADSLWVV; listed as Homo sapiens) [compound 34] | ″+++″ (≥50% = +++)
25 (FLPDEPYIKV; listed as Homo sapiens) [compound 25] | ″+++″ (≥50% = +++)
110 (FLSQVDFEL; listed as Homo sapiens) [compound 110] | ″+++″ (≥50% = +++)
249 (LLDGFLVNV; listed as Homo sapiens) [compound 249] | ″+++″ (≥50% = +++)
1 (SLMEPPAVLLL; listed as Homo sapiens) [compound 1] | ″+++″ (≥50% = +++)
301 (FLVEDLVDSL; listed as Homo sapiens) [compound 301] | ″+++″ (≥50% = +++)
227 (ALMNTLLYL; listed as Homo sapiens) [compound 227] | ″++″ (≥20% = ++)
357 (SMHDLVLQV; listed as Homo sapiens) [compound 357] | ″+++″ (≥50% = +++)
75 (GLLEVMVNL; listed as Homo sapiens) [compound 75] | ″+++″ (≥50% = +++)
546 (VMIAGKVAVV; listed as Homo sapiens) [compound 546] | ″+++″ (≥50% = +++)
163 (ALDEMGDLLQL; listed as Homo sapiens) [compound 163] | ″+++″ (≥50% = +++)
207 (GLTSTNAEV; listed as Homo sapiens) [compound 207] | ″++″ (≥20% = ++)
402 (VLFSGALLGL; listed as Homo sapiens) [compound 402] | ″++″ (≥20% = ++)
479 (SLFGNSGILENV; listed as Homo sapiens) [compound 479] | ″+++″ (≥50% = +++)
200 (LLFGSVQEV; listed as Homo sapiens) [compound 200] | ″+++″ (≥50% = +++)
311 (RLYTGMHTV; listed as Homo sapiens) [compound 311] | ″+++″ (≥50% = +++)
17 (GLLPGDRLVSV; listed as Homo sapiens) [compound 17] | ″+++″ (≥50% = +++)
90 (TLLQIIETV; listed as Homo sapiens) [compound 90] | ″+++″ (≥50% = +++)
299 (YLLETSGNL; listed as Homo sapiens) [compound 299] | ″+++″ (≥50% = +++)
508 (ILAQEQLVVGV; listed as Homo sapiens) [compound 508] | ″+++″ (≥50% = +++)
146 (SLATAGDGLIEL; listed as Homo sapiens) [compound 146] | ″++″ (≥20% = ++)

Substance | Peptide exchange
614 (LLLPDQPPYHL; listed as Homo sapiens) [compound 614] | ″+++″ (≥50% = +++)
40 (TLLVKVFSV; listed as Homo sapiens) [compound 40] | ″+++″ (≥50% = +++)
80 (FLYDNLVESL; listed as Homo sapiens) [compound 80] | ″++″ (≥20% = ++)
375 (SLTETIEGV; listed as Homo sapiens) [compound 375] | ″++″ (≥20% = ++)
50 (SLSELEALM; listed as Homo sapiens) [compound 50] | ″+++″ (≥50% = +++)
502 (RLLAQVPGL; listed as Homo sapiens) [compound 502] | ″+++″ (≥50% = +++)
155 (RVANLHFPSV; listed as Homo sapiens) [compound 155] | ″+++″ (≥50% = +++)
344 (YLQDQHLLLTV; listed as Homo sapiens) [compound 344] | ″+++″ (≥50% = +++)
44 (ILDPISSGFLL; listed as Homo sapiens) [compound 44] | ″++″ (≥20% = ++)
478 (YLLHEKLNL; listed as Homo sapiens) [compound 478] | ″+++″ (≥50% = +++)
618 (VLFDSESIGIYV; listed as Homo sapiens) [compound 618] | ″+++″ (≥50% = +++)
242 (AIAYILQGV; listed as Homo sapiens) [compound 242] | ″++″ (≥20% = ++)
430 (HLYSSIEHLTT; listed as Homo sapiens) [compound 430] | ″+++″ (≥50% = +++)
104 (STMEQNFLL; listed as Homo sapiens) [compound 104] | ″++++″ (≥75% = ++++)
347 (SLFKHDPAAWEA; listed as Homo sapiens) [compound 347] | ″++++″ (≥75% = ++++)
267 (ALQDFLLSV; listed as Homo sapiens) [compound 267] | ″+++″ (≥50% = +++)
380 (TLIEDEIATI; listed as Homo sapiens) [compound 380] | ″++″ (≥20% = ++)
472 (KLLEVSDDPQV; listed as Homo sapiens) [compound 472] | ″+++″ (≥50% = +++)
191 (LLQEGQALEYV; listed as Homo sapiens) [compound 191] | ″++″ (≥20% = ++)
138 (YQYPRAILSV; listed as Homo sapiens) [compound 138] | ″+++″ (≥50% = +++)
202 (ALLDQQGSRWTL; listed as Homo sapiens) [compound 202] | ″+++″ (≥50% = +++)
204 (KIAENVEEV; listed as Homo sapiens) [compound 204] | ″++″ (≥20% = ++)
567 (SLLPLDDIVRV; listed as Homo sapiens) [compound 567] | ″+++″ (≥50% = +++)

From patent publication US10253076B2, “Peptides and combination of peptides for use in immunotherapy against ovarian cancer and other cancers” (immatics biotechnologies GmbH, priority 2015, dated 2019)
